The nature of series [1]: Fluorescence polarization equilibrium binding assay with purified protein. Particulars: for affinity for DIG-PEG3-Alexa488 by fluorescence polarization (in words): purified protein in solution. On the procedure:
Proteins were expressed in E. coli Rosetta 2 (DE3) cells with a C-terminal TEV protease cleavable His6 tag for biochemical assays. For crystallographic analysis of DIG10 variants, a 12-amino acid structurally disordered C-terminus deriving from the scaffold protein 1z1s was replaced directly with a His6 tag. Binding affinities were determined by equilibrium fluorescence polarization^30 on a SpectraMax M5e microplate reader by monitoring the anisotropy of DIG-conjugated Alexa488 as a function of protein concentration. Equilibrium fluorescence polarization competition assays were performed by examining the effect of increasing concentrations of unlabeled DIG, digitoxigenin, progesterone, and β-estradiol on the anisotropy of designed protein-DIG-conjugated Alexa488 complex.
Fluorescence polarization binding assays. Fluorescence polarization-based affinity measurements of designs and their evolved variants were performed as described^46 using Alexa488-conjugated DIG (DIG-PEG3-Alexa488). Fluorescence anisotropy (r) was measured in 96-well plate format on a SpectraMax M5e microplate reader (Molecular Devices) with λex=485 nM and λem=538 nM using a 515 nm emission cutoff filter. Fluorescence polarization equilibrium competition binding assays were used to determine the binding affinities of DIG10.3 and its variants for unlabeled digoxigenin, digitoxigenin, progesterone, β-estradiol, and digoxin. The inhibition constant for each protein-ligand interaction, Ki, was calculated from the measured total unlabeled ligand producing 50% binding signal inhibition (I50) and the Kd of the protein-label interaction according to a model accounting for receptor-depletion conditions^46.
Fluorescence polarization equilibrium binding assays. Fluorescence polarization-based affinity measurements of designs and their evolved variants were performed as noted previously^47 using Alexa488-conjugated DIG (DIG-PEG3-Alexa488). In a typical experiment, the concentration of DIG-PEG3-Alexa488 was fixed below the Kd of the interaction being monitored and the effect of increasing concentrations of protein on the fluorescence anisotropy of Alexa488 was determined. Fluorescence anisotropy (r) was measured in 96-well plate format on a SpectraMax M5e microplate reader (Molecular Devices) with λex=485 nM and λem=538 nM using a 515 nm emission cutoff filter. In all experiments, PBS (pH 7.4) was used as the buffer system and the temperature was 25° C. DIG-PEG3-Alexa488 solutions were prepared from a 1 mM stock in DMSO. Equilibrium dissociation constants (Kd) were determined by fitting plots of the anisotropy averaged over a period of 20 to 40 min after reaction initiation versus protein concentration as described previously^47. […]

A short description of series [2]: Yeast surface display flow cytometry binding assay, DIG-RNase-biotin and SAPE. Particulars: for compensated mean binding (PE) signal on yeast: 2.7 μM DIG-RNase-biotin pre-incubated with SAPE. An excerpt: (§1) DIG10.1a-derived library DNA was sequenced in paired-end mode on an Illumina MiSeq.
(§2) General experimental methods. Detailed procedures for the syntheses of DIG-BSA-biotin, DIG-RNase-biotin, DIG-PEG3-biotin, and DIG-PEG3-Alexa488, as well as protein expression, purification, and crystallization, cloning, and mutagenesis methods are given in Supplementary Methods. Details about fluorescence polarization binding assays, gel filtration analysis, and protein stability measurements are also provided in Supplementary Methods. Yeast surface display. Designed proteins were tested for binding using yeast-surface display^40. […] DIG binding was assessed by quantifying the phycoerythrin (PE) fluorescence of the displaying yeast population following incubation with DIG-BSA-biotin, DIG-RNase-biotin, or DIG-PEG3-biotin, and streptavidin-phycoerythrin (SAPE). In a typical experiment using DIG-BSA-biotin or DIG-RNase-biotin, cells were resuspended in a premixed solution of PBSF (PBS+1 g/L of BSA) containing a 1:100 dilution of anti-cmyc FITC, […] DIG-BSA-biotin or DIG-RNase biotin, and 664 nM SAPE for 2-4 hr incubation at 4° C. Cellular fluorescence was monitored on an Accuri C6 flow cytometer using a 488 nm laser for excitation and a 575 nm band pass filter for emission. Phycoerythrin fluorescence was compensated to minimize bleed-over contributions from the FITC channel. Competition assays with free digoxigenin were performed as above except that between 750 μM and 1.5 mM of digoxigenin was added to each labeling reaction mixture. Full details are given in Supplementary Methods.
(§3) Yeast surface display assays. Designed proteins were tested for binding using yeast-surface display^23. Designs DIG1-17/pET29FLAG, DigA16/pET29FLAG, and 3hk4/pET29FLAG were subcloned into the NdeI/XhoI cloning sites of pETCON^24. Designs and control proteins in pETCON were transformed into EBY100 cells using lithium acetate and polyethylene glycol^25 with dH2O instead of single stranded carrier DNA and were plated on selective media (C -ura -trp). Freshly transformed cells were inoculated into 1 mL of SDCAA media^23 and grown at 30° C., 200 rpm. After ˜12 hrs, 1e7 cells were collected by centrifugation at 1,700×g for 3 min and resuspended in 1 mL of SGCAA media to induce protein expression. Following induction for 24-48 hrs at 18° C., 4e6 cells were collected by centrifugation, and washed twice by incubation with PBSF (PBS supplemented with […]) for 10 min at room temperature
(§4) DIG binding was assessed by quantifying the phycoerythrin (PE) fluorescence of the displaying yeast population following incubation with DIG-BSA-biotin, DIG-RNase-biotin, or DIG-PEG3-biotin, and streptavidin-phycoerythrin (SAPE; Invitrogen, Carlsbad, Calif.). In a typical experiment using DIG-BSA-biotin or DIG-RNase-biotin. 4e6 cells were resuspended in 50 μL of a premixed solution of PBSF containing a 1:100 dilution of anti-cmyc FITC, 2.66 μM DIG-BSA-biotin or DIG-RNase biotin, and 664 nM SAPE. Following a 2-4 hr incubation at 4° C. in the dark on a rotator, cells were collected by centrifugation at 1,700×g for 3 min and washed with 200 μL of PBSF at 4° C. Cell pellets were resuspended in 200 μL of ice-cold PBSF immediately before use. Cellular fluorescence was monitored on an Accuri C6 flow cytometer using a 488 nm laser for excitation and a 575 nm band pass filter for emission. Phycoerythrin fluorescence was compensated to minimize bleed-over contributions from the FITC fluorescence channel. […]
In general terms: In flow cytometry, cells or beads pass a laser one at a time.

The nature of series [3]: Yeast surface display flow cytometry binding assay, DIG-BSA-biotin and SAPE. The conditions noted are these: for compensated mean binding (PE) signal on yeast: 2.7 μM DIG-BSA-biotin pre-incubated with SAPE; for binding in presence of unlabeled DIG competitor: DIG-BSA or DIG-RNase label, ˜1 mM unlabeled DIG.
Description: as §1, §2, §3, §4

Series [4] can be described thus: Circular dichroism spectroscopy, temperature melting. It is filed as physicochemical. On the procedure: Circular dichroism spectroscopy. Circular dichroism spectra were collected on an Aviv 62A DS spectrometer. Samples were prepared in PBS. Fixed-temperature scans were conducted at 25° C. All proteins were stable <°60 C.
For orientation: Circular dichroism is widely used to follow secondary structure.

The source of these data is patent US9840539B2, “High affinity digoxigenin binding proteins” (UNIVERSITY OF WASHINGTON THROUGH ITS CENTER FOR …, priority 2013, dated 2017).

Changes are numbered by the printed parent chain. Names and notes keep the numbering of the source. “Also recorded” adds a separate entry of the source. Like-named read-outs stand apart in the source and are kept apart here.

B1: DIG5: computationally designed digoxigenin binding polypeptide from scaffold 1z1s, SEQ ID NO: 10 (protein)
chain: MNAKEILVHSLRLLENGDARGWCDLFHPEGVLEFPYAPPGWKTRFEGRETIWAHMRLHPEHVTVRFTDVQFYETADPDLAIGEYHGDGVVTVSGGKYAADFITVLRTRDGQILLYRVFWNPLRALEAAGGVEAAAKIVQGA
modifications: (130)..(141) amino acids are optionally absent
In the case of B1, in series [1], the “affinity for DIG-PEG3-Alexa488 by fluorescence polarization (in words)” value (from here on “affinity for DIG-PEG3-Alexa488”) is on record as “low to mid micromolar range”. The “compensated mean binding (PE) signal on yeast” value (shortened to “compensated mean binding”) in series [2] is recorded as “strong binding signals”. For the same molecule, the “binding (PE) signal in presence of unlabeled DIG competitor” value in series [2] (2.7 μM DIG-RNase-biotin, 790 μM unlabeled DIG) is on record as “reduced to that of the negative control ZZ(−)”. Further, in series [3], the “compensated mean binding” value is listed as “slightly above background levels” and the “binding in presence of unlabeled DIG competitor” value is listed as “reduced to background levels”.

B2: DIG10: computationally designed digoxigenin binding polypeptide from scaffold 1z1s, SEQ ID NO: 12 (protein)
chain: MNAKEIVVHSLRLLENGDARGWCDLFHPEGVLEYPYAPPGHKTRFEGRETIWAHMRLFPEYVTVRFTDVQFYETADPDLAIGEFHGDGVHTVSGGKLAADYISVLRTRDGQILLYRVFFNPLRVLEALGGVEAAAKIVQGA
modifications: (130)..(141) amino acids are optionally absent
As for B2, the “affinity for DIG-PEG3-Alexa488” value in series [1] was “low to mid micromolar range”. The “compensated mean binding” value in series [2] is reported as “strong binding signals”. For the same molecule, in series [3], the “compensated mean binding” value is “strong binding signals” and the “binding in presence of unlabeled DIG competitor” value is given as “reduced to background levels”.

B3: DIG10.1a: affinity matured DIG10 variant with S10A, V62M, V64I, V117L, A127P; SEQ ID NO: 13 (protein)
chain: B2 chain with S10A, V62M, V64I, V117L, A127P
modifications: (130)..(141) amino acids are optionally absent
B3: in series [4], the “thermal stability by CD temperature melting” value (“thermal stability” below) is “stable at temperatures below 60 °C”. Further, the “increase of binding affinity relative to DIG10” value in series [1] (after one round of mutagenesis and selections) is 75 fold. In addition, in series [2] (5 pM DIG-RNase, then SAPE), the “binding (PE) signal, stringent multistep labeling” value is on record as “slightly higher signal; also recorded: strong binding signals”.

B4: DIG10.2: DIG10.1a variant with A37P and H41Y, SEQ ID NO: 14 (protein)
chain: B2 chain with S10A, A37P, H41Y, V62M, V64I, V117L, A127P
modifications: (130)..(141) amino acids are optionally absent
As to B4, the “thermal stability” value in series [4] is “stable at temperatures below 60 °C”.

B5: 1z1s: scaffold, hypothetical protein of unknown function from Pseudomonas aeruginosa, SEQ ID NO: 24 (protein)
chain: B2 chain with V7L, Y34F, H41W, Y61H, V62L, H90A, A99Q, V117D, F119W, V124H
As to B5, in series [4] (PBS), the “thermal stability” value is “stable at temperatures below 60 °C”. Moreover, in series [1], the “affinity for DIG-PEG3-Alexa488” value is on record as “does not bind”. Further, the “compensated mean binding” value in series [2] was “does not show a binding signal”; in series [3], “does not bind to either label”.
